In experiment [1] the test system is Ang-1-mediated Tie-2 phosphorylation in EA.hy926 cells. In words: Inhibition of Ang-1-mediated Tie-2 phosphorylation in EA.hy926 cells. It is filed as cell-based, human. To be noted: up to 400 nM. Here is the method:
EA.hy926 cells (Edgell et al., Proc. Natl. Acad. Sci. USA 80:3734-3737 (1983)) were plated at 5×10^6 cells per 10 cm dish in 10 ml DMEM with 10% FBS, HAT, L-glutamine and penicillin/streptomycin. After 24 hours, cells were serum-starved for 1 hour in 10 ml DMEM+1 mg/ml BSA. Cells were then stimulated for 10 minutes with 500 ng/ml of recombinant human Ang-1 (R&D Systems) in the presence of either an irrelevant isotype control antibody (“9E10”) at 400 nM or the anti-Ang-2 antibody H1H685P, or control agents (Control I, Control II, Control IV, or Control V) at concentrations ranging from 10 to 400 nM.
Following incubation, cells were lysed and Tie-2 was immunoprecipitated as described by Daly et al., Proc. Natl. Acad. Sci. USA 103:15491-15496 (2006). Immune complexes were collected by incubation with protein A/G beads (Santa Cruz Biotechnology, Santa Cruz, Calif.) for 60 min. Beads were washed with cold lysis buffer and bound proteins were eluted by heating in SDS sample buffer. Samples were then subjected to Western blot analysis with monoclonal antibodies against Tie-2 or phosphotyrosine (clone 4G10, Millipore, Billerica, Mass.).
Signals were detected using HRP-conjugated secondary antibodies and ECL reagents (GE Healthcare, Piscataway, N.J.). X-ray films were scanned and the phospho-Tie-2 and Tie-2 signals were quantified using ImageJ software. […]

Experiment [2] has as its target biotin-hBA2 binding to hTie-2 (Homo sapiens, UniProt O15123). In words: ELISA blocking of biotinylated hBA2 binding to hTie-2-His. To be noted: antibodies cloned onto human IgG1; NB: no blocking observed at 5 nM concentration; read-out: Biotin - hBA2 IC50. It counts as biochemical. Here is the method: For this experiment, human Tie-2 conjugated to a histidine tag (hTie-2-His; SEQ ID NO:526) was used in a similar fashion to the hTie-2-mFc described above. Antibody concentrations from 5 nM were serially diluted three-fold. […] An average IC50 value for each antibody was calculated based on two separate experiments.

Experiment [3] deals with Monkey Ang-2FD-hFc binding to hTie-2-mFc. In words: ELISA blocking of monkey Ang-2FD-hFc binding to hTie-2-mFc. It is filed as biochemical. To be noted: 16.67 nM antibody; 2 nM Ang-2FD-hFc. As to the method: Tie-2 is a natural receptor for Ang-2. Anti-Ang-2 antibodies were tested for their ability to block Ang-2 binding to human Tie-2 (hTie-2). hTie-2-mFc (a chimeric construct consisting of human Tie-2 conjugated to mouse IgG; SEQ ID NO:525) was coated onto 96-well plates at a concentration of 2 μg/ml and incubated overnight followed by washing four times in wash buffer (PBS with 0.05% Tween-20). The plate was then blocked with PBS (Irvine Scientific, Santa Ana, Calif.) containing 0.5% BSA (Sigma-Aldrich Corp., St. Louis, Mo.) for one hour at room temperature. In a separate plate, purified anti-Ang-2 antibodies, at a starting concentration of 50 nM, were serially diluted by a factor of three across the plate. Human, mouse or monkey Ang-2FD protein conjugated to human IgG (Ang-2FD-hFc) were added to final concentrations of 2 nM, 8 nM, or 2 nM respectively and incubated for one hour at room temperature. The antibody/Ang-2FD-Fc mixture was then added to the plate containing hTie-2-mFc and incubated for one hour at room temperature. Detection of Ang-2FD-hFc bound to hTie-2-mFc protein was determined with Horse-Radish Peroxidase (HRP) conjugated to a-human IgG antibody (Jackson Immuno Research Lab, West Grove, Pa.) and developed by standard colorimetric response using tetramethylbenzidine (TMB) substrate (BD Biosciences, San Jose, Calif.). Absorbance was read at OD450 for 0.1 sec.
Chain of Monkey Ang-2FD-hFc binding to hTie-2-mFc (as listed by the source): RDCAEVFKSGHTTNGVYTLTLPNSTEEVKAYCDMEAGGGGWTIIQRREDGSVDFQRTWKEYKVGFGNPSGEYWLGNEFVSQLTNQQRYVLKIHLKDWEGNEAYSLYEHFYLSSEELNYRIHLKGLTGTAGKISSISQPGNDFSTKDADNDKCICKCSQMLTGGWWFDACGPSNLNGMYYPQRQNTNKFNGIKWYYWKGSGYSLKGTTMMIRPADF
Chain of Monkey Ang-2FD-hFc binding to hTie-2-mFc (Q02763 with tags, fused parts or gaps Q346P/T695I partner limits assumed): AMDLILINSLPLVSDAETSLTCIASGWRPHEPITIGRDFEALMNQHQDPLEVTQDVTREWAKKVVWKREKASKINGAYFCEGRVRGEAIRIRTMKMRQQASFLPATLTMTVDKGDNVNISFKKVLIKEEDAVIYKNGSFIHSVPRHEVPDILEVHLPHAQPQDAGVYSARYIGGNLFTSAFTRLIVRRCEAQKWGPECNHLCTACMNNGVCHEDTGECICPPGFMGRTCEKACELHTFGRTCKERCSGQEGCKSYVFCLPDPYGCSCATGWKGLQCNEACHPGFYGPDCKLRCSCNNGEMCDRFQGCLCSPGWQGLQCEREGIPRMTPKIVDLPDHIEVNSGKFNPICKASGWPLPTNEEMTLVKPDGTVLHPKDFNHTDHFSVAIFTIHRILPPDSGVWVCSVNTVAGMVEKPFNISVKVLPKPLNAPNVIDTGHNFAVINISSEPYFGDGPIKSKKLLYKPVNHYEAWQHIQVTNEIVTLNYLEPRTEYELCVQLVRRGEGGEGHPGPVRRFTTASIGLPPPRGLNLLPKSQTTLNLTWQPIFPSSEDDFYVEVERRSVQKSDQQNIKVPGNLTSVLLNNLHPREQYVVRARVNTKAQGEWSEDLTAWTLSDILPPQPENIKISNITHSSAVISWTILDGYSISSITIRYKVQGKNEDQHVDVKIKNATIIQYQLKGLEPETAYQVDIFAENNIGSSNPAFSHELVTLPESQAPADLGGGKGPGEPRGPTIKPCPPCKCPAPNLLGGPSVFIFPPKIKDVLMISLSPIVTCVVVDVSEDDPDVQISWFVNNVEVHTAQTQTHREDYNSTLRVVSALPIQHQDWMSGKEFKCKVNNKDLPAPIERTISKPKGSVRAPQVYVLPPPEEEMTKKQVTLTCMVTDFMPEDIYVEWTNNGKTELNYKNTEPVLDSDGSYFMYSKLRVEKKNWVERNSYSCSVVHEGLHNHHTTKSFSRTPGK
Background: An ELISA detects its analyte on a solid surface through an enzyme-linked reagent.

The target in the next experiment is hBA2 (Homo sapiens, UniProt O15123). In words: SPR binding to human bow-Ang-2 tetrameric construct (hBA2). (In general: SPR reads the build-up and loss of mass on a sensor chip optically.)
Chain of hBA2 (O15123 with tags, fused parts or gaps): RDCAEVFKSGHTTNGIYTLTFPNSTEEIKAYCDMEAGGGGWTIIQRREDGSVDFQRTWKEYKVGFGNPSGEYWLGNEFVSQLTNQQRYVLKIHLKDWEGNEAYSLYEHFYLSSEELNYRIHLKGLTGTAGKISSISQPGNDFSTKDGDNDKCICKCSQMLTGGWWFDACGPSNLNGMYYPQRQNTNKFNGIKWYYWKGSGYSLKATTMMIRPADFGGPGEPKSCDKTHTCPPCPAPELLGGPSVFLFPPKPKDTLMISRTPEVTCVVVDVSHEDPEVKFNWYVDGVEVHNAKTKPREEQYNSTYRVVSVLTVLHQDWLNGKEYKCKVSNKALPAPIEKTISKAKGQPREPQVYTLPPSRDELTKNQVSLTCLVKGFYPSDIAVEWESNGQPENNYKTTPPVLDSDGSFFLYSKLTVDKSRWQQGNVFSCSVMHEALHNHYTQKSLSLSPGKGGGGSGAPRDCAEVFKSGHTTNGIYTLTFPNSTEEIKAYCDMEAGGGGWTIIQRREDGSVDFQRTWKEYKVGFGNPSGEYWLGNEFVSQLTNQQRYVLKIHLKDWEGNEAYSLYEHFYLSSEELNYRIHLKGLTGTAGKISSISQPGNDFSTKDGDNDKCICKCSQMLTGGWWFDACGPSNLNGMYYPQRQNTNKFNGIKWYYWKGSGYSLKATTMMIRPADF
The target in a further experiment is T1, Dimeric Human Ang-2FD (Homo sapiens, UniProt O15123).
T1 sequence (O15123 282-496): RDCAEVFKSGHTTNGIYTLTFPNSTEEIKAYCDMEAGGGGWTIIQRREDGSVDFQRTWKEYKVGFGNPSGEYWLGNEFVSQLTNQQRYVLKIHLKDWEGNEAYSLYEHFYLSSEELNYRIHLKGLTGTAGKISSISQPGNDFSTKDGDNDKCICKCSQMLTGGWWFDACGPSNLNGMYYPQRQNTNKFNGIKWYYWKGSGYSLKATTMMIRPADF
The experiment is described as follows: Surface plasmon resonance binding to dimeric human Ang-2FD conjugated to human IgG1. To be noted: SPR, room temperature. Here is the method: Equilibrium dissociation constants (KD values) for the binding of selected purified Ang-2 antibodies to dimeric fibrinogen-like domain of human (SEQ ID NO: 519), mouse (Mus musculus; SEQ ID NO: 520) and monkey (Macca fascicularis; SEQ ID NO: 521) Ang-2 (Ang-2FD) conjugated to human IgG1 (SEQ ID NO:528) were determined by surface kinetics using a real-time biosensor surface plasmon resonance assay. Antibody was captured on a goat anti-mouse IgG polyclonal antibody surface, a goat anti-human κ polyclonal antibody (Southern Biotech, Birmingham, Ala.) surface or a goat anti-human IgG polyclonal antibody (Jackson Immuno Research Lab, West Grove, Pa.) surface created through direct amine coupling to a BIACORE™ CM5 sensor chip to form a captured antibody surface. Varying concentrations (ranging from 50 nM to 6.25 nM) of protein were injected at 100 μl/min over captured antibody surface for 90 seconds. Antigen-antibody binding and dissociation were monitored in real time at room temperature. Kinetic analysis was performed to calculate KD and half-life of antigen/antibody complex dissociation.
The above experiment was repeated using selected purified anti-Ang-2 antibodies cloned onto human IgG1.

Chain of biotin-hBA2 binding to hTie-2 (O15123 with tags, fused parts or gaps): as the sequence (O15123 with tags, fused parts or gaps) above

Broadly, the IC50 is the midpoint of a concentration-inhibition curve. As usually defined, the Kd is the constant that tells how readily two partners part at equilibrium. On to “H1H685P: human anti-Ang-2 antibody, HCVR/LCVR SEQ ID NOs 18/20; also referred to as mAb1 [Antibody H1H685P]”, for which the “Inhibitory effect on Ang-1-induced Tie-2 phosphorylation (in words)” value in experiment [1] is given as “no significant inhibitory effect”. For the same substance, in experiment [2], the half-inhibitory concentration (IC50) amounted to 0.02 nM. For the same substance, the “Percent Blocking of Ang-2FD Binding to Tie-2, Monkey Ang-2FD-hFc” value in experiment [3] stood at 62.2%. Further, the figures for the equilibrium dissociation constant (Kd) with hBA2 and with Dimeric Human Ang-2FD were 0.0119 nM and 0.0714 nM, respectively.

For the origin of these results see patent US9926369B2, “Methods for treating hepatocellular cancer by administering an anti-Ang-2 antibody” (Regeneron Pharmaceuticals, Inc., priority 2009, dated 2018).
